Tests used:
[1] = target: TNFR1-Fc (UniProt P25118); assay: BLI
[2] = target: TNFR2-Fc (UniProt P25119); assay: BLI
UniProt P25119, sequence (P25119 23-258): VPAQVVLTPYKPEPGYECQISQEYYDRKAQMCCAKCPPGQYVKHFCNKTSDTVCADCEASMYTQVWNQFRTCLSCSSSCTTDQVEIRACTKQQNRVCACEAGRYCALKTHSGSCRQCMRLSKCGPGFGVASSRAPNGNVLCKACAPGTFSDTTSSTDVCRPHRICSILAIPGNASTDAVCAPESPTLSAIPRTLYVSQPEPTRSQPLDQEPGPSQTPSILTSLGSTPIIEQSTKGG

UniProt P25118, sequence (P25118 30-212): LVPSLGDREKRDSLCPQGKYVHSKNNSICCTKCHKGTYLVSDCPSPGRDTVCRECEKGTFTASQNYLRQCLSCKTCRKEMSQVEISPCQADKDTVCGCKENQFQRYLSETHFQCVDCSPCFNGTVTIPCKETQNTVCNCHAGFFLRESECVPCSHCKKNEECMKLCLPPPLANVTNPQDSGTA

Row | Substance | Kd [1] [nM] | Kd [2] [nM]
1 | mutated NGR-TNFα with valine at the start of TNFα (NGR-TNFα-V) | 0.526 | 2.45
2 | mutated murine TNFα with valine at the start (TNFα-V) (ligand) | 0.326 | 1.86
3 | native murine TNFα with leucine at the start (TNFα-L) (ligand) | 0.309 | 2.1
4 | native NGR-TNFα with leucine at the start of TNFα (NGR-TNFα-L) | 0.741 | 4.63

Source: article PMC7852052
